Tests used:
[1] = system: 281 bp ARF promoter fragment; assay: Transactivation of ARF promoter-luciferase reporter in NIH-3T3 cells; type: cell-based, mouse; details: NIH-3T3, 281 bp ARF promoter fragment-luciferase
Protocol: Transactivation assays. NIH-3T3 cells were transfected with 4 μg of pGL2-ARFpro BamHI or its DMP1 binding site mutant, with or without increasing amount of pFLEX-DMP1, pEVRFO-Ets1, pCMV-Ets2, pRcRSV-Elfl, pdEB-Fli1, p(IEB-EWS-Fli1 or pCMV-E2F-1 (89-437), and 4 μg β-actin SEAP control vectors [Inoue and Sherr, Mol. Cell. Biol. 18: 1590-1600 (1998); Inoue et al., J. Biol. Chem. 273:29188-29194 (1998); Davis and Roussel, Gene 171:265-269 (1996); Baily et al., Mol. Cell. Biol. 14:3230-3241 (1994)]. Transfections and normalization of luciferase levels with internal control SEAP levels were performed as described [Inoue and Sherr, Mol. Cell. Biol. 18:1590-1600 (1998)].
Similarly, DMP1 deletion mutants defective in transactivation [Inoue and Sherr, Mol. Cell. […] Mutation of the DMP1 binding site within the ARF promoter [changing CCCGGATGC, (SEQ ID NO:33) to CCCGTCGAC, (SEQ ID NO:42)] also completely abolished transactivation by wild-type DMP1 (FIG. 14C, mutant reporter). Therefore, sequences within the −189 to −181 ARF promoter segment were the only ones responsible for DMP1-mediated transactivation. Although Ets1 could bind to a 23 base pair oligonucleotide containing the DMP1 consensus site (FIG. 14B), several Ets proteins were unable to induce significant reporter gene expression from the more complex 281 base pair ARF promoter (FIG. 14C). […]

recombinant DMP1 = target: T1, recombinant DMP1 (Mus musculus, UniProt Q8CE22); assay: EMSA competition with Sf9 lysates producing recombinant DMP1; type: binding; details: excess unlabeled oligonucleotide
T1 construct: made in house; host or cells: Sf9 insect cells, pAcYM1 baculovirus vector; used as crude lysate (~4 ng DMP1 per reaction)
T1 sequence (Q8CE22 1-761): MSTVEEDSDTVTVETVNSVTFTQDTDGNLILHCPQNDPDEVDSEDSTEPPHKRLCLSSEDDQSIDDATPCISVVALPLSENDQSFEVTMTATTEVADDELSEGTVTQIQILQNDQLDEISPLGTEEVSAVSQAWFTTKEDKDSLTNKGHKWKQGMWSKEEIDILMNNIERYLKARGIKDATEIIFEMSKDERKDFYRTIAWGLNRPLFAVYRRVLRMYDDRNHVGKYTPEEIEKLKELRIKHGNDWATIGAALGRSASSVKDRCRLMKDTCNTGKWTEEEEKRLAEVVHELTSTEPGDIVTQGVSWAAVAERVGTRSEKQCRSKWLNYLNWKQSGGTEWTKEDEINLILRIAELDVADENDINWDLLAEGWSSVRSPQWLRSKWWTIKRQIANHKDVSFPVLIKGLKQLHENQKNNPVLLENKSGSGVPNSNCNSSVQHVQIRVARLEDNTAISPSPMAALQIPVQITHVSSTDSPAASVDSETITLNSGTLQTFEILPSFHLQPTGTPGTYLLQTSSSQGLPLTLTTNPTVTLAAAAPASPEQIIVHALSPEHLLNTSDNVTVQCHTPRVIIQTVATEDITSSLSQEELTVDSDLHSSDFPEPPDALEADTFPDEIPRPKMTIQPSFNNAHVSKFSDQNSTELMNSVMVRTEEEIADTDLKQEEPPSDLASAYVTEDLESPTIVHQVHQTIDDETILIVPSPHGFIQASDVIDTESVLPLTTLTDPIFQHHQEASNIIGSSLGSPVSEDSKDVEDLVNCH
Protocol: Double-stranded oligonucleotides containing potential DMP1 binding sites (BS1 and BS2) and mutated versions (M1-M4) (FIG. 5B) are end-labeled with ^32P using the Klenow fragment of DNA polymerase and α-^32P-dATP (6000 Ci/mmol; Dupont NEN) (8). Nuclear extracts from mouse NIH-3T3 or CTLL cells are prepared with buffer containing 0.4 M NaCl (2). Mammalian cell extracts (15 μg protein) or Sf9 lysates (corresponding to 5×10^2 infected cells) containing ˜4 ng recombinant DMP1 are mixed with 3 ng of ^32P-labeled probe (1×10^5 cpm) in 15 ul Binding buffer containing 2.5 μg of poly(dI-dC) and 2.5 μg BSA and incubated at 4° C. for 30 minutes. For competition experiments, the indicated amounts of unlabeled oligonucleotides are added to the reactions before addition of the labeled probe. In some experiments, a bacterially produced GST-Ets2 fusion protein containing the complete Ets2 DNA-binding domain (10) is used in place of Sf9 extracts containing recombinant DMP1. Protein-DNA complexes are separated on nondenaturing 4% polyacrylamide gels as described (8). Where indicated, antiserum to DMP1 together with 2.5 μg salmon testis DNA (Sigma; used to reduce nonspecific DNA binding activity caused by serum addition) is preincubated with extracts for 30 minutes at 4° C. prior to initiation of binding reactions. Immune complexes are either removed by adsorption to protein A-Sepharose beads (immunodepletion experiments) or are allowed to remain (“supershift” experiments).
Using electrophoretic mobility shift assays (EMSA) performed after mixing a titrated excess (3 ng) of ^32P-end labeled BS1 probe with Sf9 lysates producing DMP1 (˜4 ng recombinant protein per reaction), a BS1-containing protein complex is detected that was competed with an excess of unlabeled BS1 oligonucleotide but not with mutant oligonucleotides M1 and M2 (FIG. 6A). […] More subtle mutations within this region may be tolerated, because high concentrations of M4 competed for BS1 binding to both Ets2 and DMP1 in subsequent studies (FIG. 5B and see below). DMP1 also binds a BS2 probe, and the binding is competed by excess BS2 or BS1 (FIG. 6B). In agreement with the site selection frequencies (FIG. 5A), binding of ^32P-BS1 under equivalent conditions was competed more efficiently by excess unlabeled BS1 than by BS2 (FIG. 6B). […] In agreement, Ets2 binding to BS1 could be competed with excess unlabeled BS1 and M3, but not by BS2 (FIG. 6C). Therefore, although both DMP1 and Ets2 can each bind to BS1 sequences, their exclusive interactions with BS2 and M3, respectively, help to distinguish DMP1 and Ets binding activities (summarized in FIG. 5B).

Substance: DMP1: murine cyclin D-associated myb-like transcription factor, 761 amino acids, SEQ ID NO:1
- ARF promoter reporter gene expression [1]: enhanced reporter gene expression

Substance: M3: DMP1 deletion mutant (NcoI), amino acids 1-458 of SEQ ID NO:1
- competition for 32P-BS1 probe binding to DMP1 (recombinant DMP1): does not compete
- competition for BS2 probe binding to DMP1 (recombinant DMP1): does not compete
